The results in this text go back to article PMC3617137 (2013).

The test deals with T1, microtubules (alpha/beta-tubulin) (Sus scrofa, UniProt P02550).
T1 chain 1: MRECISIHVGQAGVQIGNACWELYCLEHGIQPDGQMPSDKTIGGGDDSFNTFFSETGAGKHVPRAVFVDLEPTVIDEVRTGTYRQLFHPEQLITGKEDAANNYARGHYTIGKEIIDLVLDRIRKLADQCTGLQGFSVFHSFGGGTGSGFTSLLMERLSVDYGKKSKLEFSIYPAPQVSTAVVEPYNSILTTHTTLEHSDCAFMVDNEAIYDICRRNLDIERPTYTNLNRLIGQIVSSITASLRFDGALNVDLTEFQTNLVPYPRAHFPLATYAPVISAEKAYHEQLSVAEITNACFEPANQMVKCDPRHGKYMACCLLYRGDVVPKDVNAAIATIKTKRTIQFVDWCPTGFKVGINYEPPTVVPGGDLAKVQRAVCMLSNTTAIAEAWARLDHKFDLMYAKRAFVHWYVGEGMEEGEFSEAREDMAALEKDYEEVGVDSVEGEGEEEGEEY
T1 chain 2: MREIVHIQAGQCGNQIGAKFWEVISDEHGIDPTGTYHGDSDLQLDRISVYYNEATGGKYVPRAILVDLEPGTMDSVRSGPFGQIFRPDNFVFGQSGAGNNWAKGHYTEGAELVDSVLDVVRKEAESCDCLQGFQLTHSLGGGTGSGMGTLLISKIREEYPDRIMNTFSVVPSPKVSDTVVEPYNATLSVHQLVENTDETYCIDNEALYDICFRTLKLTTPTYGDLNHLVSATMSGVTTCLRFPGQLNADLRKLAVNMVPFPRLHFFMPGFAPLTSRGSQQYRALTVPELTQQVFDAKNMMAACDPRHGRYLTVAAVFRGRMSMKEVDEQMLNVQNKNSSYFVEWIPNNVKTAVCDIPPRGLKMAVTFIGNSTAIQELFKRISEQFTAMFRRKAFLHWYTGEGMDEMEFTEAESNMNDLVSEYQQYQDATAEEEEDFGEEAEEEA
Kind of test: microtubule co-sedimentation.

B1: Mars (MBP-N-Mars) 1-430 (protein)
chain: MQRHKELYKEQSLVLSPRNHCQENRDRLQAARAKKREDCFYQNRIISVSPTPVKIKQLAAAQAALTQENVAPKLESPERLDTKPAELLKESNPKVSRQKLYLQRYMEWKIAKTKEHKQQDQKRRGAAINVPTVKQSKALPKSQTFRVPDNLASAKQKEAAPMFQPPKRCSLYMIANPTGKGKAAEPIKPSIPKPTSAAAPPSSNTVAASSALARHKSAASATKIVPAIRQNNNPVALARQKAAARPIPNTTKQTTSVRQPGIEAKKITTTIPRPTPATVTKAKTPGIRQQPPVVSTKPRLPEPPAPRTARLPNVLSKPFEKPLGNKAPVTRRANVVKPQPIRGGGGAAAKFKDTAGATSKAASHSIRMKATKIKSQYTRLQDNVRKLPQLKAELLHAATLDIPPLTPLDDIHNPFIDQATSTQCKSNNSS
modifications: MBP fusion, taxol-stabilized GMPPNP/GDP-NP microtubules
In the case of B1, the Kd was determined as 250 nM.

A word on the Kd: it is a measure of binding affinity in units of concentration. A lower Kd goes with a tighter complex.
